Results: patent US11821042B2, “Targeting chromosomal instability and downstream cytosolic DNA signaling for cancer treatment” (Cornell University, priority 2017, dated 2023)

Tests used:
MDA-MB-231 cells [1] = test: Intracardiac injection metastasis model, bioluminescence imaging and disease-specific survival; assay type: in vivo, mice; conditions: intracardiac injection of MDA-MB-231 cells expressing the protein, FIG. 2E
Experimental: Animal experiments were performed in accordance with protocols approved by the Weill Cornell Medicine Institutional Animal Care and Use Committee. […] There was no need to randomize animals. Investigators were not blinded to group allocation. Intracardiac injection was performed as previously described (Chen et al. Nature 533, 493-498 (2016)). Briefly, cells were trypsinized and washed with PBS and a 1×10^5 cells (in 100 μl of PBS) were injected into the left cardiac ventricle of female athymic 6-7-week-old athymic nude (nu/nu) mice (Jackson Laboratory strain 002019). Mice were then immediately injected with D-luciferin (150 mgkg^−1) and subjected to bioluminescence imaging (BLI) using tan IVIS Spectrum Xenogen instrument (Caliper Life Sciences) to ensure systemic dissemination of tumor cells. Metastatic burden was measured at week 5 after injection using BLI and in the case of MDA-MB-231 mice BLI images were taken every 1-2 weeks for up to 17 weeks. BLI images were analyzed using Living Image Software v.2.50. Disease-specific survival endpoint was met when the mice died or met the criteria for euthanasia under the IACUC protocol and had radiographic evidence of metastatic disease. For Orthotopic tumor implantation, 2.5×10^5 cells in 50p of PBS were mixed 1:1 with Matrigel (BD Biosciences) and injected into the fourth mammary fat pad. Only one tumor was implanted per animal. Primary tumors were surgically excited when they reached ˜1.5 cm in the largest dimension and metastatic dissemination was assessed using BLI imaging at 1-week to 3-week intervals for up to 30 weeks. Distant metastasis-free survival endpoint was met when BLI signal was seen outside of site of primary tumor transplantation. To derive short-term culture from primary tumors and metastases, anesthetized animals (isofluorane) were imaged then sacrificed. Ex-vivo BLI was subsequently performed on harvested organs to define the precise location of the metastatic lesion. Primary tumors and metastases were subsequently mechanically dissociated and cultured in DMEM with selection media to select for tumor cells. […]

MDA-MB-231 cells [2] = test: Chromosome missegregation in anaphase cells; assay type: cell-based, human; conditions: overexpression in MDA-MB-231 cells
Experimental: (§1) Primary tumor specimens were analyzed from 60 patients with head and neck squamous cell carcinoma (HNSCC) (Chung et al. Cancer Cell 5, 489-500 (2004)). Forty patients had Hematoxylin and Eosin-stained (H&E) primary tumor samples of sufficient quality for high-resolution microscopy analysis. Analysis was restricted to cells fixed while undergoing anaphase as previously described (Bakhoun et al. Clin. Cancer Res. 17, 7704-7711 (2011); Zaki et al. Cancer 120, 1733-1742 (2014)). Chromosome missegregation was defined by hematoxylin staining presence in between the remaining segregating chromosomes during anaphase and it was reported as the percentage of cells undergoing anaphase with evidence of chromosome missegregation. Clinical lymph node status was defined by clinical examination or radiographic evidence of lymph node tumor involvement (Chung et al. Cancer Cell 5, 489-500 (2004)).
(§2) Cell fixation and antibody staining were performed as described (Bakhoun et al. Nat Commun 6, 5990 (2015)). Briefly, cells were fixed with ice-cold (−30 C) methanol for 15 minutes—when staining for centromeres, centrosomes, cGAS, Vimentin, β-actin, or α-tubulin—or 4% paraformaldehyde—when staining for RelB, p65, IRF3, ssDNA, dsDNA, CoxIV, or β-catenin. Subsequently, cells were permeabilized using 1% triton for 4 minutes. See Table 1 for antibody information.
(§3) To determine whether chromosomal instability is causally involved in metastasis, we devised a genetic approach (Bakhoun et al., Nat. Cell Biol. 11, 27-35 (2009); Bakhoun et al., Nat Commun 6, 5990 (2015)) to alter the rate of chromosome missegregation in transplantable tumor models of human TNBC (MDA-MB-231) and lung adenocarcinoma (H2030). […] These cells, with unperturbed chromosome segregation rates, are referred to a as CIN-medium cells. […] As an important control, Kif2a was overexpressed, Kif2a is a third member of the microtubule-depolymerizing kinesin-13 proteins that lacks any kinetochore or centromere localization domains (Ems-McClung et al. Semin. Cell Dev. Biol. 21, 276-282 (2010)).

H2030 cells = test: Chromosome missegregation in anaphase cells; assay type: cell-based, human; conditions: overexpression in H2030 cells
Experimental: as §1, §2, §3

cGAS = cGAS localization to micronuclei by immunofluorescence; assay type: cell-based, human; conditions: Lamin B2 overexpression in dnMCAK cells
Experimental: as §2

cytosolic DNA = test: Cytosolic dsDNA and ssDNA staining after selective plasma membrane permeabilization; assay type: cell-based, human; conditions: after overexpression of Dnase2
Experimental: as §2
For selective plasma membrane permeabilization used for cytosolic dsDNA and ssDNA staining, cells were treated with 0.02% saponin for 5 minutes after fixation. For single-stranded (Thermo Fisher FEREN0321) and double stranded (Life Technologies—EN0771)-specific nuclease treatment, cells were also permeabilized with 0.02% saponin for 2 minutes and treated with either nucleases for 10 minutes before fixation using 4% paraformaldehyde. TBS-BSA was used as a blocking agent during antibody staining. DAPI was added together with secondary antibodies. Cells were mounted with Prolong Diamond Antifade Mountant (Life Technologies—P36961).

Molecule | disease-specific survival of mice (MDA-MB-231 cells [1]) | chromosome segregation errors during anaphase (MDA-MB-231 cells [2]) | chromosome segregation errors during anaphase (H2030 cells) | relative fraction of micronuclei with cGAS staining (cGAS) | cytosolic dsDNA staining signal (cytosolic DNA)
Kif2b: kinesin-13 protein, human sequence SEQ ID NO:1, overexpressed in tumor cells (protein, listed as Homo sapiens) MASQFCLPESPCLSPLKPLKPHFGDIQEGIYVAIQRSDKRIHLAVVTEINRENYWVTVEWVEKAVKKGKKIDLETILLLNPALDSAEHPMPPPPLSPLALAPSSAIRDQRTATKWVAMIPQKNQTASGDSLDVRVPSKPCLMKQKKSPCLWEIQKLQEQREKRRRLQQEIRARRALDVNTRNPNYEIMHMIEEYRRHLDSSKISVLEPPQEHRICVCVRKRPLNQRETTLKDLDIITVPSDNVVMVHESKQKVDLTRYLQNQTFCFDHAFDDKASNELVYQFTAQPLVESIFRKGMATCFAYGQTGSGKTYTMGGDFSGTAQDCSKGIYALVAQDVFLLLRNSTYEKLDLKVYGTFFEIYGGKVYDLLNWKKKLQVLEDGNQQIQVVGLQEKEVCCVEEVLNLVEIGNSCRTSRQTPVNAHSSRSHAVFQIILKSGRIMHGKFSLVDLAGNERGADTTKASRKRQLEGAEINKSLLALKECILALGQNKPHTPFRASKLTLVLRDSFIGQNSSTCMIATISPGMTSCENTLNTLRYANRVKKLNVDVRPYHRGHYPIGHEAPRMLKSHIGNSEMSLQRDEFIKIPYVQSEEQKEIEEVETLPTLLGKDTTISGKGSSQWLENIQERAGGVHHDIDFCIARSLSILEQKIDALTEIQKKLKLLLADLHVKSKVE | most survival | significant suppression | significant suppression | – | –
Kif2a: third microtubule-depolymerizing kinesin-13 protein lacking kinetochore or centromere localization domains; control (protein, UniProt O00139 1-706, looked up) Kinesin-like protein KIF2A: MATANFGKIQIGIYVEIKRSDGRIHQAMVTSLNEDNESVTVEWIENGDTKGKEIDLESIFSLNPDLVPDEEIEPSPETPPPPASSAKVNKIVKNRRTVASIKNDPPSRDNRVVGSARARPSQFPEQSSSAQQNGSVSDISPVQAAKKEFGPPSRRKSNCVKEVEKLQEKREKRRLQQQELREKRAQDVDATNPNYEIMCMIRDFRGSLDYRPLTTADPIDEHRICVCVRKRPLNKKETQMKDLDVITIPSKDVVMVHEPKQKVDLTRYLENQTFRFDYAFDDSAPNEMVYRFTARPLVETIFERGMATCFAYGQTGSGKTHTMGGDFSGKNQDCSKGIYALAARDVFLMLKKPNYKKLELQVYATFFEIYSGKVFDLLNRKTKLRVLEDGKQQVQVVGLQEREVKCVEDVLKLIDIGNSCRTSGQTSANAHSSRSHAVFQIILRRKGKLHGKFSLIDLAGNERGADTSSADRQTRLEGAEINKSLLALKECIRALGRNKPHTPFRASKLTQVLRDSFIGENSRTCMIATISPGMASCENTLNTLRYANRVKELTVDPTAAGDVRPIMHHPPNQIDDLETQWGVGSSPQRDDLKLLCEQNEEEVSPQLFTFHEAVSQMVEMEEQVVEDHRAVFQESIRWLEDEKALLEMTEEVDYDVDSYATQLEAILEQKIDILTELRDKVKSFRAALQEEEQASKQINPKRPRAL | middle levels of survival | no effect | no effect | – | –
MCAK/Kif2c: kinesin-13 protein, human sequence SEQ ID NO:3 or 7, overexpressed in tumor cells (protein, listed as Homo sapiens) MAMDSSLQARLFPGLAIKIQRSNGLIHSANVRTVNLEKSCVSVEWAEGGATKGKEIDFDDVAAINPELLQLLPLHPKDNLPLQENVTIQKQKRRSVNSKIPAPKESLRSRSTRMSTVSELRITAQENDMEVELPAAANSRKQFSVPPAPTRPSCPAVAEIPLRMVSEEMEEQVHSIRGSSSANPVNSVRRKSCLVKEVEKMKNKREEKKAQNSEMRMKRAQEYDSSFPNWEFARMIKEFRATLECHPLTMTDPIEEHRICVCVRKRPLNKQELAKKEIDVISIPSKCLLLVHEPKLKVDLTKYLENQAFCFDFAFDETASNEVVYRFTARPLVQTIFEGGKATCFAYGQTGSGKTHTMGGDLSGKAQNASKGIYAMASRDVFLLKNQPCYRKLGLEVYVTFFEIYNGKLFDLLNKKAKLRVLEDGKQQVQVVGLQEHLVNSADDVIKMLDMGSACRTSGQTFANSNSSRSHACFQIILRAKGRMHGKFSLVDLAGNERGADTSSADRQTRMEGAEINKSLLALKECIRALGQNKAHTPFRESKLTQVLRDSFIGENSRTCMIATISPGISSCEYTLNTLRYADRVKELSPHSGPSGEQLIQMETEEMEACSNGALIPGNLSKEEEELSSQMSSFNEAMTQIRELEEKAMEELKEIIQQGPDWLELSEMTEQPDYDLETFVNKAESALAQQAKHFSALRDVIKALRLAMQLEEQASRQISSKKRPQ | most survival | significant suppression | significant suppression | – | –
Lamin B2: mCherry-Lamin B2 overexpressed to stabilize micronuclear envelopes (protein, UniProt Q03252 1-617, looked up, mCherry fusion, mCherry-Lamin B2 overexpressed to stabilize micronuclear envelopes) Lamin-B2: MSPPSPGRRREQRRPRAAATMATPLPGRAGGPATPLSPTRLSRLQEKEELRELNDRLAHYIDRVRALELENDRLLLKISEKEEVTTREVSGIKALYESELADARRVLDETARERARLQIEIGKLRAELDEVNKSAKKREGELTVAQGRVKDLESLFHRSEVELAAALSDKRGLESDVAELRAQLAKAEDGHAVAKKQLEKETLMRVDLENRCQSLQEELDFRKSVFEEEVRETRRRHERRLVEVDSSRQQEYDFKMAQALEELRSQHDEQVRLYKLELEQTYQAKLDSAKLSSDQNDKAASAAREELKEARMRLESLSYQLSGLQKQASAAEDRIRELEEAMAGERDKFRKMLDAKEQEMTEMRDVMQQQLAEYQELLDVKLALDMEINAYRKLLEGEEERLKLSPSPSSRVTVSRATSSSSGSLSATGRLGRSKRKRLEVEEPLGSGPSVLGTGTGGSGGFHLAQQASASGSVSIEEIDLEGKFVQLKNNSDKDQSLGNWRIKRQVLEGEEIAYKFTPKYILRAGQMVTVWAAGAGVAHSPPSTLVWKGQSSWGTGESFRTVLVNADGEEVAMRTVKKSSVMRENENGEEEEEEAEFGEEDLFHQQGDPRTTSRGC | – | – | – | significantly diminished | –
Dnase2: Dnase2 overexpressed using a pLenti-GIII-CMV-RFP-2A-Puro plasmid (protein, UniProt O00115 19-360, looked up) Deoxyribonuclease-2-alpha: CYGDSGQPVDWFVVYKLPALRGSGEAAQRGLQYKYLDESSGGWRDGRALINSPEGAVGRSLQPLYRSNTSQLAFLLYNDQPPQPSKAQDSSMRGHTKGVLLLDHDGGFWLVHSVPNFPPPASSAAYSWPHSACTYGQTLLCVSFPFAQFSKMGKQLTYTYPWVYNYQLEGIFAQEFPDLENVVKGHHVSQEPWNSSITLTSQAGAVFQSFAKFSKFGDDLYSGWLAAALGTNLQVQFWHKTVGILPSNCSDIWQVLNVNQIAFPGPAGPSFNSTEDHSKWCVSPKGPWTCVGDMNRNQGEEQRGGGTLCAQLPALWKAFQPLVKNYQPCNGMARKPSRAYKI | – | – | – | – | disappeared
